This is an account of results in the supplement of paper PMC9112550, “Optimization of the antimicrobial peptide Bac7 by deep mutational scanning” (BMC Biology, 2022).

The subject of this series is Escherichia coli TOP10. Nature of the series: shrunken log2 fold change of peptide-encoding DNA abundance (4.5 h post-induction vs induction); higher = less antimicrobial activity (less host growth inhibition). The settings on record: time post-induction: 4.5 h; library: site-saturation at positions 5, 18, 19, 20.
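Further: peptides expressed intracellularly from a pBAD plasmid library in pooled LB shake-flask culture, induced with 0.3% L-arabinose, DNA abundance read by NGS, three biological replicates, DESeq2 with apeglm shrinkage.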

As for RRIRFRPPRLPRPRPRPNDDPRP, the “shrunken log2 fold change” value was -0.755. To RRIRIRPPRLPRPRPRPAEEPRP belongs -0.084. Under RRIRLRPPRLPRPRPRPWWEPRP stands 0.176. Regarding RRIRLRPPRLPRPRPRPEGDPRP, the “shrunken log2 fold change” value was determined as 0.0662.

As for RRIRYRPPRLPRPRPRPHQIPRP, the “shrunken log2 fold change” value was -0.201. To RRIRCRPPRLPRPRPRPNNSPRP belongs -0.743; to RRIRERPPRLPRPRPRPSFLPRP, -0.789; to RRIRIRPPRLPRPRPRPTIMPRP, -0.745. For the sequence RRIRNRPPRLPRPRPRPQIGPRP, the “shrunken log2 fold change” value is 0.0326. For RRIRKRPPRLPRPRPRPWMHPRP, the “shrunken log2 fold change” value amounted to 0.00994. To RRIRSRPPRLPRPRPRPDIHPRP belongs -1.3. In the case of RRIRTRPPRLPRPRPRPPATPRP, the “shrunken log2 fold change” value worked out at 0.213. As to RRIRERPPRLPRPRPRPKMTPRP, the “shrunken log2 fold change” value was -0.0406.

On to RRIRWRPPRLPRPRPRPINEPRP, for which the “shrunken log2 fold change” value is 0.402. Turning to RRIRYRPPRLPRPRPRPNRLPRP, the “shrunken log2 fold change” value was -0.0455. In the case of RRIRCRPPRLPRPRPRPIIDPRP, the “shrunken log2 fold change” value is -0.323.

Take RRIRLRPPRLPRPRPRPIWEPRP: the “shrunken log2 fold change” value is 0.0805. To RRIRSRPPRLPRPRPRPDNTPRP belongs -0.44; to RRIRNRPPRLPRPRPRPYASPRP, -0.397. As for RRIRVRPPRLPRPRPRPMYIPRP, the “shrunken log2 fold change” value was -0.0844. To RRIRGRPPRLPRPRPRPKFKPRP belongs 0.383; to RRIRFRPPRLPRPRPRPITSPRP, -0.178; to RRIRFRPPRLPRPRPRPVAWPRP, 0.119. Under RRIRPRPPRLPRPRPRPEETPRP stands -0.131. Under RRIRKRPPRLPRPRPRPEHDPRP stands 0.169; under RRIRMRPPRLPRPRPRPQPRPRP, 1.22; under RRIRRRPPRLPRPRPRPFQHPRP, -0.248. In the case of RRIRDRPPRLPRPRPRPLNGPRP, the “shrunken log2 fold change” value was -0.00962. Under RRIRMRPPRLPRPRPRPVWIPRP stands -0.0455; under RRIRSRPPRLPRPRPRPYNHPRP, -1.54. RRIRMRPPRLPRPRPRPCDQPRP: the “shrunken log2 fold change” value is -0.134.

For the sequence RRIRQRPPRLPRPRPRPYHPPRP, the “shrunken log2 fold change” value was -0.531. Under RRIRIRPPRLPRPRPRPRCWPRP stands 0.138; under RRIRARPPRLPRPRPRPGRPPRP, 0.801; under RRIRLRPPRLPRPRPRPANKPRP, -0.0711. RRIRFRPPRLPRPRPRPFAGPRP: the “shrunken log2 fold change” value turned out to be 0.0728. Under RRIRQRPPRLPRPRPRPSKPPRP stands -0.231; under RRIRYRPPRLPRPRPRPYLCPRP, -1.35; under RRIRKRPPRLPRPRPRPCMWPRP, -0.189.

Turning to RRIRVRPPRLPRPRPRPGPWPRP, the “shrunken log2 fold change” value amounted to 0.273. To RRIRYRPPRLPRPRPRPEANPRP belongs -0.127; to RRIRARPPRLPRPRPRPIFAPRP, 0.555; to RRIRKRPPRLPRPRPRPHVCPRP, -0.00289. RRIRQRPPRLPRPRPRPMFPPRP: the “shrunken log2 fold change” value was -0.181. Under RRIRNRPPRLPRPRPRPVYYPRP stands -0.562; under RRIRPRPPRLPRPRPRPTLNPRP, 0.0863. With RRIRLRPPRLPRPRPRPWFNPRP, the “shrunken log2 fold change” value is -0.388. Consider RRIRDRPPRLPRPRPRPSMTPRP, for which the “shrunken log2 fold change” value is 0.237. Under RRIRIRPPRLPRPRPRPHWYPRP stands -1.16; under RRIRERPPRLPRPRPRPKYSPRP, -0.866; under RRIRIRPPRLPRPRPRPWPLPRP, -0.122.

In the case of RRIRSRPPRLPRPRPRPKVAPRP, the “shrunken log2 fold change” value is 0.509. Turning to RRIRRRPPRLPRPRPRPLDAPRP, the “shrunken log2 fold change” value came out at 0.472.

As for RRIRVRPPRLPRPRPRPDAGPRP, the “shrunken log2 fold change” value amounted to 0.13. Take RRIRMRPPRLPRPRPRPHHWPRP: the “shrunken log2 fold change” value turned out to be 0.439. For the sequence RRIRCRPPRLPRPRPRPHERPRP, the “shrunken log2 fold change” value was -0.0193. Turning to RRIRQRPPRLPRPRPRPNVGPRP, the “shrunken log2 fold change” value is -0.0447. Under RRIRCRPPRLPRPRPRPNLDPRP stands -0.478; under RRIRTRPPRLPRPRPRPHLHPRP, -0.844; under RRIRRRPPRLPRPRPRPQYAPRP, 0.0794. To RRIRGRPPRLPRPRPRPTMDPRP belongs 0.985; to RRIRERPPRLPRPRPRPYCNPRP, -0.143; to RRIRQRPPRLPRPRPRPAWPPRP, 0.303.

Consider RRIRFRPPRLPRPRPRPIGHPRP, for which the “shrunken log2 fold change” value was -0.115. To RRIRQRPPRLPRPRPRPGPWPRP belongs 0.479. For RRIRTRPPRLPRPRPRPYVTPRP, the “shrunken log2 fold change” value was -0.203. Under RRIRHRPPRLPRPRPRPQKDPRP stands 0.0122. Take RRIRPRPPRLPRPRPRPKSMPRP: the “shrunken log2 fold change” value was -0.37.

Take RRIRDRPPRLPRPRPRPMEDPRP: the “shrunken log2 fold change” value was -0.0288.

Turning to RRIRSRPPRLPRPRPRPFVFPRP, the “shrunken log2 fold change” value was -0.102.

Regarding RRIRQRPPRLPRPRPRPGDNPRP, the “shrunken log2 fold change” value is -0.203.

Turning to RRIRCRPPRLPRPRPRPEQVPRP, the “shrunken log2 fold change” value was -0.0491.

Turning to RRIRVRPPRLPRPRPRPLNYPRP, the “shrunken log2 fold change” value is -0.621. With RRIRKRPPRLPRPRPRPLKFPRP, the “shrunken log2 fold change” value was -0.118. To RRIRKRPPRLPRPRPRPIGNPRP belongs 0.0844. RRIRSRPPRLPRPRPRPWGKPRP: the “shrunken log2 fold change” value is -0.109. Under RRIRWRPPRLPRPRPRPGGLPRP stands 0.403; under RRIRVRPPRLPRPRPRPCINPRP, 0.0189; under RRIRFRPPRLPRPRPRPPQKPRP, 0.719.

On to RRIRLRPPRLPRPRPRPQWIPRP, for which the “shrunken log2 fold change” value was -0.0288. Under RRIRCRPPRLPRPRPRPWYYPRP stands -0.698; under RRIRPRPPRLPRPRPRPDCTPRP, -0.167.

Take RRIRMRPPRLPRPRPRPSTWPRP: the “shrunken log2 fold change” value came out at 0.081. For RRIRVRPPRLPRPRPRPESKPRP, the “shrunken log2 fold change” value was 0.00683. To RRIRMRPPRLPRPRPRPQAFPRP belongs 0.0522; to RRIRGRPPRLPRPRPRPMWDPRP, 0.639.

As for RRIRPRPPRLPRPRPRPRVCPRP, the “shrunken log2 fold change” value is 0.298. For the sequence RRIRRRPPRLPRPRPRPWHLPRP, the “shrunken log2 fold change” value is -0.138. For the sequence RRIRRRPPRLPRPRPRPYNCPRP, the “shrunken log2 fold change” value was found to be 0.00861. Under RRIRWRPPRLPRPRPRPQMTPRP stands -0.0595. To RRIRERPPRLPRPRPRPMCIPRP belongs -0.133; to RRIRTRPPRLPRPRPRPYQDPRP, -0.0173; to RRIRYRPPRLPRPRPRPHCHPRP, -0.735. Under RRIRYRPPRLPRPRPRPLHRPRP stands -0.116. In the case of RRIRARPPRLPRPRPRPYAGPRP, the “shrunken log2 fold change” value was -0.534. RRIRWRPPRLPRPRPRPQDMPRP: the “shrunken log2 fold change” value is -0.199. Under RRIRIRPPRLPRPRPRPLVLPRP stands -0.458; under RRIRVRPPRLPRPRPRPIKEPRP, -0.327; under RRIRVRPPRLPRPRPRPMYKPRP, -0.608. Under RRIRKRPPRLPRPRPRPPVRPRP stands 0.265; under RRIRRRPPRLPRPRPRPLERPRP, 0.0981; under RRIRHRPPRLPRPRPRPPQWPRP, 0.0657. Under RRIRFRPPRLPRPRPRPDINPRP stands -0.302; under RRIRERPPRLPRPRPRPASMPRP, 0.0524; under RRIRDRPPRLPRPRPRPYDYPRP, -0.097. Take RRIRLRPPRLPRPRPRPTCHPRP: the “shrunken log2 fold change” value was found to be 0.000681.

For the sequence RRIRQRPPRLPRPRPRPIMKPRP, the “shrunken log2 fold change” value was -0.0798. Under RRIRYRPPRLPRPRPRPHTCPRP stands -0.191; under RRIRSRPPRLPRPRPRPNQFPRP, -0.232. For the sequence RRIRKRPPRLPRPRPRPYPIPRP, the “shrunken log2 fold change” value amounted to 0.11. Under RRIRGRPPRLPRPRPRPQGYPRP stands 0.045; under RRIRDRPPRLPRPRPRPHTHPRP, -0.0285; under RRIRKRPPRLPRPRPRPMHEPRP, 0.191.

With RRIRRRPPRLPRPRPRPCEEPRP, the “shrunken log2 fold change” value was 0.218. To RRIRKRPPRLPRPRPRPKPQPRP belongs 0.927; to RRIRPRPPRLPRPRPRPTGCPRP, 0.0367; to RRIRYRPPRLPRPRPRPQFTPRP, -0.308.

Consider RRIRSRPPRLPRPRPRPMKNPRP, for which the “shrunken log2 fold change” value is -0.145.

As to RRIRIRPPRLPRPRPRPLFAPRP, the “shrunken log2 fold change” value was -0.0892. Under RRIRHRPPRLPRPRPRPLKVPRP stands 0.0138; under RRIRTRPPRLPRPRPRPVHDPRP, -0.0747.

Turning to RRIRERPPRLPRPRPRPLCSPRP, the “shrunken log2 fold change” value is -0.512. Under RRIRERPPRLPRPRPRPCFPPRP stands -0.166; under RRIRTRPPRLPRPRPRPTWKPRP, 0.0204. Under RRIRERPPRLPRPRPRPTPIPRP stands 0.244.
